What was measured:
hPD-L1-Fc [1] = target: T1, hPD-L1-Fc (human, UniProt Q9NZQ7 20-239, limits assumed); assay: competitive ELISA, hPD-L1-Fc coated, competitor hPD-1-hIgG-biotin 10 ug/ml; against wild-type KN035
T1 construct: also called PDL1-Fc fusion protein; human PDL1 protein; not shown: Fc part

hPD-L1-Fc [2] = target: T1, hPD-L1-Fc; assay: BLI (Octet K2), hPD-L1-Fc on AHC sensor, sdAb variant in solution; against wild-type KN035

T1 sequence (Q9NZQ7 other isoform, or with tags, fused parts or gaps limits assumed): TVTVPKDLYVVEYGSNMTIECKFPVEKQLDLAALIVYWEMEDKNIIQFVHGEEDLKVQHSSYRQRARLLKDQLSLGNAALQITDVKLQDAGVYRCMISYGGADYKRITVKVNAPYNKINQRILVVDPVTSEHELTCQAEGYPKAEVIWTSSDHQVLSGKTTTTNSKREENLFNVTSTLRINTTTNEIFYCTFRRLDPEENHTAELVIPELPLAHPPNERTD

Binder	Relative blocking activity (EC50 wt/EC50 m × 100%) (hPD-L1-Fc [1]) [%]	KD/KD wt (hPD-L1-Fc [2]) [ratio]
KN035 sdAb mutant 1 (VHH, Expressed in HEK293, IMAC purified; not shown: C-terminal His-tag) VHH: QVQLQESGGGSVQAGGSLRLSCAASGKMSSRRCMGWFRQAPGKERVGVAAIDSDGTTKYADSMKGRFTISKDNAKNTLDLQMNSLKPEDTAMYYCVADSFEDPTCTLVTSSGAFQYRGQGTQVTVSS	80	1.21
KN035 sdAb mutant 2 (VHH, not shown: C-terminal His-tag) VHH: QVQLQESGGGSVQAGGSLRLSCAASGKMSSRRCMGWFRQAPGKQRVGVATIDSDGTTRYVDSVKGRFTISKDNAKNTLDLQMNSLKPEDTAMYYCAADSFEDPTCTLVTSSGAFQYRGQGTQVTVSS	71	1.73
KN035 single domain antibody mutant m3 (VHH, not shown: C-terminal His-tag (obtained 'by the above method')) VHH: QVQLQESGGGLVQPGGSLRLSCAASGKMSSRRCMAWFRQAPGKERERVADVNPNSGGSIYNQRFKGRFTISQNNAKSTVYLQMNSLKPEDTAMYYCAADSFEDPTCTLVTSSGAFQYWGQGTQVTVSS	91	2.01
